Data on one protein can be found in PMC4432624, “Prdx4 is a compartment-specific H2O2 sensor that regulates neurogenesis by controlling surface expression of GDE2” (Nature Communications, 2015).

By stoichiometry N is commonly meant a count of units in the complex or per binding partner.

This series deals with the molecule itself. The experiment in a line: western blot of Prdx4 dimers and monomers; primary motor neuron cultures treated with H2O2, Tempol or Edaravone; cells lysed with 100 mM maleimide; anti-mPrdx4 blot. Background: A western blot detects proteins with antibodies after separation by electrophoresis.

B1: mouse Prdx4, endogenous in primary motor neuron cultures (enzyme, UniProt O08807 41-274, looked up)
chain: LESDERFRTRENECHFYAGGQVYPGEASRVSVADHSLHLSKAKISKPAPYWEGTAVINGEFKELKLTDYRGKYLVFFFYPLDFTFVCPTEIIAFGDRIEEFKSINTEVVACSVDSQFTHLAWINTPRRQGGLGPIRIPLLSDLNHQISKDYGVYLEDSGHTLRGLFIIDDKGVLRQITLNDLPVGRSVDETLRLVQAFQYTDKHGEVCPAGWKPGSETIIPDPAGKLKYFDKLN
notes: Peroxiredoxin 4 (Prdx4), mouse, endogenous; also called mPrdx4; source: endogenous, primary motor neuron cultures from E11.5 mouse spinal cords
For the protein B1, the “stoichiometry N” value came out at 2.
